Laboratory results published in the supplement of paper PMC10065799, “High-throughput profiling of sequence recognition by tyrosine kinases and SH2 domains using bacterial peptide display” (eLife, 2023).

How the values were obtained:
AncSZ = test: phosphorylation enrichment, bacterial display (enrichment ratio); higher = better substrate or ligand; peptides without Tyr show the background
EPHB2 = EPHB2 (UniProt P29323); test: as above
MERTK = MERTK (UniProt Q12866); test: as above
Fyn = Fyn (UniProt P06241); test: as above
c-Abl (mouse) = test: as above
c-Src = test: as above
EPHB1 = EPHB1 (UniProt P54762); test: as above
Hck = Hck (UniProt P08631); test: as above
Fer (mouse) = test: as above
FGFR3 = FGFR3 (UniProt P22607); test: as above
Jak2 = Jak2 (UniProt O60674); test: as above
FGFR1 = FGFR1 (UniProt P11362); test: as above
Fes = Fes (UniProt P07332); test: as above
SHP2-C SH2 = test: SH2 binding enrichment of the phosphorylated peptide, bacterial display (enrichment ratio); higher = better substrate or ligand; peptides without Tyr show the background
Grb2 SH2 = Grb2 SH2 (UniProt P62993); test: as above
c-Src SH2 = test: as above
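For SH2 binding enrichment of the phosphorylated peptide, bacterial display in this document: peptide library displayed on the E. coli surface as eCPX fusions, selected cells deep-sequenced, score is each peptide's frequency after selection divided by its frequency in the input.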
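For phosphorylation enrichment, bacterial display in this document: 11-residue human phosphosite peptides and single-mutation variants displayed on the E. coli surface, counted by deep sequencing, each peptide's frequency after selection divided by its frequency in the unselected input library; frequency after pTyr selection over input frequency; kinase dosed for 20-30% of maximal phosphorylation in three min.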

FGFR3, sequence (P22607 whole entry, looked up): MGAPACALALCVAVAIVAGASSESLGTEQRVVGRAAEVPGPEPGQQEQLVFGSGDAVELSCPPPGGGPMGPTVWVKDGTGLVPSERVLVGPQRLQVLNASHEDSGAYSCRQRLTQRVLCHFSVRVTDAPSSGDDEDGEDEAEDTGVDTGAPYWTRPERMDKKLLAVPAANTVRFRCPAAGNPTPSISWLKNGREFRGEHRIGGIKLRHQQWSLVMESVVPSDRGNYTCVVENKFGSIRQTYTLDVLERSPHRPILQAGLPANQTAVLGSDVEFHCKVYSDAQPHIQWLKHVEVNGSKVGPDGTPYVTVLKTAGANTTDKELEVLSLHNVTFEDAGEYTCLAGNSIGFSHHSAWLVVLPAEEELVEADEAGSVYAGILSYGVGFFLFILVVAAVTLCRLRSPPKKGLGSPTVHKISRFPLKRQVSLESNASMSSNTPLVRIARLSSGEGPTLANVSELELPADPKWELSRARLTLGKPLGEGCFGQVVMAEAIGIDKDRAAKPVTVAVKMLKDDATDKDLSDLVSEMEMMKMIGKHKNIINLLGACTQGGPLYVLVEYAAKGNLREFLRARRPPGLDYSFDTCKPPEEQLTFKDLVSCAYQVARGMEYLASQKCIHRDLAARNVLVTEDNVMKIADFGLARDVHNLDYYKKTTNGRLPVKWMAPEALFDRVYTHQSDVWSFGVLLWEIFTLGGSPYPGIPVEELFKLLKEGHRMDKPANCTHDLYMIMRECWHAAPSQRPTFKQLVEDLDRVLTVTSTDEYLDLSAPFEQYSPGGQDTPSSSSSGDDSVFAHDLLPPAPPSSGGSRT
Jak2, sequence (O60674 whole entry, looked up): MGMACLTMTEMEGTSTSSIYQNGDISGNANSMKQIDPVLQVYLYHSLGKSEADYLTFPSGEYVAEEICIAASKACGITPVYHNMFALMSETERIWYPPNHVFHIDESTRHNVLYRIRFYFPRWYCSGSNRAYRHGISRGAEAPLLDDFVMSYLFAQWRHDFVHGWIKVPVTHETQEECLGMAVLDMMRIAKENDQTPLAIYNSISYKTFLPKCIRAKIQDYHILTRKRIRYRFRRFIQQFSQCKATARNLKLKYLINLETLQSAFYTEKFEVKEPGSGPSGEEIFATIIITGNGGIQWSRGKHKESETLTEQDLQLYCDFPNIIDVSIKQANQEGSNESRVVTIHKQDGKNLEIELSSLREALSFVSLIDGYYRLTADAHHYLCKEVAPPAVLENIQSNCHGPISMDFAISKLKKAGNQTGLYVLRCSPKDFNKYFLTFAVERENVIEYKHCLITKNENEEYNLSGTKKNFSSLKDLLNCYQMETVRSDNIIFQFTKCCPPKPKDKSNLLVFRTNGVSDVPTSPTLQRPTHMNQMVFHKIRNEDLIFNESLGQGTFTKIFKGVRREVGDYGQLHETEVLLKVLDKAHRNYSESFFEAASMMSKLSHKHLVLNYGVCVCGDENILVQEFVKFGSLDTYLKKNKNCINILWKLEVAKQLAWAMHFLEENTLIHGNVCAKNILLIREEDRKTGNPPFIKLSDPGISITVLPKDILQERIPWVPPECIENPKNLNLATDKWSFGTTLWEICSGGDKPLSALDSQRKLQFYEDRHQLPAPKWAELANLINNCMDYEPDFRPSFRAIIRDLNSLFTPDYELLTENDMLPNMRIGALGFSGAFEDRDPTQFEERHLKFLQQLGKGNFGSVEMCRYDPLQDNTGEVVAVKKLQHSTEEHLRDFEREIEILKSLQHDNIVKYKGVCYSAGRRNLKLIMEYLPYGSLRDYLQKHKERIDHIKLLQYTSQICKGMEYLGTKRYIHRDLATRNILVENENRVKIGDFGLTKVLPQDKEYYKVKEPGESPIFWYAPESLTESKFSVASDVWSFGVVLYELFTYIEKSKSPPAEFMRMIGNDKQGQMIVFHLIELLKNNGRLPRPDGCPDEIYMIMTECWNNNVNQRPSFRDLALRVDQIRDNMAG
MERTK, sequence (Q12866 whole entry, looked up): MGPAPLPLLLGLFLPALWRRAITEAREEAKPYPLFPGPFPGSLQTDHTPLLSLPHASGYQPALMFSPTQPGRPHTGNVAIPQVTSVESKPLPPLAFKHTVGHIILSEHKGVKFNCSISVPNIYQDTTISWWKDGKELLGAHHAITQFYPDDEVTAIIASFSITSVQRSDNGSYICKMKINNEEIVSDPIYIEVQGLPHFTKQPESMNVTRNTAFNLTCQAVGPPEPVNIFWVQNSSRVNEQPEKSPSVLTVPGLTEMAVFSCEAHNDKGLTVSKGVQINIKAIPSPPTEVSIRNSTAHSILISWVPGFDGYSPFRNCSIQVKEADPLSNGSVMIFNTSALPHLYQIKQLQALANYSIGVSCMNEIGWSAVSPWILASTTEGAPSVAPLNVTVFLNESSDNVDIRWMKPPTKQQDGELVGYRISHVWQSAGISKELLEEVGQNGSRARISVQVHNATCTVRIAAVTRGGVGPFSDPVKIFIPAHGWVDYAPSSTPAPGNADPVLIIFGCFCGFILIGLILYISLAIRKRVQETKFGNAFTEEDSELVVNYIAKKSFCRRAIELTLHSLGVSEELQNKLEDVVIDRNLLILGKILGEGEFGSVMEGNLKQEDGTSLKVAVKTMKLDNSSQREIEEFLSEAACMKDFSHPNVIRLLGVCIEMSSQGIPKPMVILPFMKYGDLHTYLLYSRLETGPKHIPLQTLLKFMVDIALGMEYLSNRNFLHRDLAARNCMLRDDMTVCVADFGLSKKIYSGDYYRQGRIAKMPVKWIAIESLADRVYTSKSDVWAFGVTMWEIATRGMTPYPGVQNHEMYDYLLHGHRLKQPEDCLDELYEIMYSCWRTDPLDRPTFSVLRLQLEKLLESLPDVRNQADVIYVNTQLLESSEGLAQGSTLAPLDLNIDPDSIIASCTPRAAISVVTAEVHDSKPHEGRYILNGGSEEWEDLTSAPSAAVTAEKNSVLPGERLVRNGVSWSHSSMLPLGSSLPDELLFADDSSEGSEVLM
Fes, sequence (P07332 whole entry, looked up): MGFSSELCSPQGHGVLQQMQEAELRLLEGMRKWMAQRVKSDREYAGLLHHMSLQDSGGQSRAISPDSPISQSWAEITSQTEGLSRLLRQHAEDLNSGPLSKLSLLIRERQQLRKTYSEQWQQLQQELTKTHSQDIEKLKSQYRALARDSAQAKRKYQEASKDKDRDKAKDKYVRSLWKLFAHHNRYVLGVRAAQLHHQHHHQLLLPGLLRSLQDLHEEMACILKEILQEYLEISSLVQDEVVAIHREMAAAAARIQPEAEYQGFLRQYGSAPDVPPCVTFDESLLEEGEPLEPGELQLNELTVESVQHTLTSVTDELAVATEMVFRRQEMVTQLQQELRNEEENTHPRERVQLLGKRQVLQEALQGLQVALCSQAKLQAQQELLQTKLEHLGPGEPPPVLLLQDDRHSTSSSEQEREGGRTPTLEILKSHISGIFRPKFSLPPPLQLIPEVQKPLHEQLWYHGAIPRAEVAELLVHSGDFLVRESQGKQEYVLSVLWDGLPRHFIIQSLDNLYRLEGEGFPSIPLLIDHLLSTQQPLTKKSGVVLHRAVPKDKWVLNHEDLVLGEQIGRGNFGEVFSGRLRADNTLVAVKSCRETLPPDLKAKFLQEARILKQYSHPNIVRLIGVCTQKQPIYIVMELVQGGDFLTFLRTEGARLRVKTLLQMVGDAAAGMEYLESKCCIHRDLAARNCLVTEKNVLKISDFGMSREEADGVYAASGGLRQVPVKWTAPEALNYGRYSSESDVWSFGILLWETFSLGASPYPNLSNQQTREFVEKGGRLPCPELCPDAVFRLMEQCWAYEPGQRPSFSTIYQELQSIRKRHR
Fyn, sequence (P06241 whole entry, looked up): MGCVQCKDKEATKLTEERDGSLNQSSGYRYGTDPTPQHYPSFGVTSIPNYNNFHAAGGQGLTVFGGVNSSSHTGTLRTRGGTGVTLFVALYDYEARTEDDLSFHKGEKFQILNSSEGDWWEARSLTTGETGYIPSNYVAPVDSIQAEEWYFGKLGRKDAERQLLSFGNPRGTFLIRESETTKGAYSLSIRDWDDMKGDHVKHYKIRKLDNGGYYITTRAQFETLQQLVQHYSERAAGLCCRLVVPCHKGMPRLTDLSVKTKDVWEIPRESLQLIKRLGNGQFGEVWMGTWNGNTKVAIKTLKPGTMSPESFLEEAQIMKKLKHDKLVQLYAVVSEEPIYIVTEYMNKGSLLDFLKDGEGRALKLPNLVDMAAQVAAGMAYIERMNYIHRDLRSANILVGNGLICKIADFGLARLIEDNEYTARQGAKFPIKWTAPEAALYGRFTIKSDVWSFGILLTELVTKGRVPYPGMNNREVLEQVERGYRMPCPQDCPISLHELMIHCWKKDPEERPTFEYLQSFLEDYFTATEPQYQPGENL
Grb2 SH2, sequence (P62993 whole entry, looked up): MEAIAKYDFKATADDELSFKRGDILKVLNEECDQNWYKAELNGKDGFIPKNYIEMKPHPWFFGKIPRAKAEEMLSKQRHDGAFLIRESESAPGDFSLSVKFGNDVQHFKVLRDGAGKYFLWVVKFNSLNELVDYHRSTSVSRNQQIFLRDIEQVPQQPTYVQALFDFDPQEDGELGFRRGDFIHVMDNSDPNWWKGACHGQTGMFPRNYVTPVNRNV
Hck, sequence (P08631 whole entry, looked up): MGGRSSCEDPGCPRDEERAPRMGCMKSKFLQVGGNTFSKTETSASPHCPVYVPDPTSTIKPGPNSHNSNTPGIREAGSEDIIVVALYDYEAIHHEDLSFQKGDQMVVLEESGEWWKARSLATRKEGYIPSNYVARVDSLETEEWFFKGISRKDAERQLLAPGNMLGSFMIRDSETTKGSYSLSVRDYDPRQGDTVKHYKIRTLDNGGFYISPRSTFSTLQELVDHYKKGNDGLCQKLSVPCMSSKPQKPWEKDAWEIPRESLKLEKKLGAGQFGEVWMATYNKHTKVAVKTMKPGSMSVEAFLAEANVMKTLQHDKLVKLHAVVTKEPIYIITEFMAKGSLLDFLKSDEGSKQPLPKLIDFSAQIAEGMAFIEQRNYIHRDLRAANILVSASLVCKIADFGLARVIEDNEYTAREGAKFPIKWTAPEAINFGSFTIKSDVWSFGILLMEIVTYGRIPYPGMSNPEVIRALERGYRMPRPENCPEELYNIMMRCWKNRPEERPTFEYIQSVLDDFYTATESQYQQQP

Sequence | phosphorylation enrichment (AncSZ) | phosphorylation enrichment (EPHB2) | phosphorylation enrichment (MERTK) | phosphorylation enrichment (Fyn) | phosphorylation enrichment (c-Abl (mouse)) | phosphorylation enrichment (c-Src) | phosphorylation enrichment (EPHB1) | phosphorylation enrichment (Hck) | phosphorylation enrichment (Fer (mouse)) | phosphorylation enrichment (FGFR3) | phosphorylation enrichment (Jak2) | phosphorylation enrichment (FGFR1) | phosphorylation enrichment (Fes) | SH2 binding enrichment (SHP2-C SH2) | SH2 binding enrichment (Grb2 SH2) | SH2 binding enrichment (c-Src SH2)
VKFLGYPPPEI [KDR_Y357_A352V_YF] | 0.692 | 0.618 | 0.402 | 0.443 | 0.688 | 0.371 | 0.452 | 0.369 | 0.427 | 0.555 | 0.744 | 0.398 | 0.974 | 0.852 | 0.809 | 0.523
VKKKLDEEIDQ [CYP17A1_Y329_Y329D] | 0.839 | 0.555 | 0.523 | 0.483 | 0.693 | 0.441 | 0.505 | 0.488 | 0.422 | 0.579 | 0.782 | 0.578 | 0.792 | 0.853 | 1.03 | 0.705
VKPENYRRPDI [VHL_Y175_L178P] | 0.566 | 0.468 | 0.371 | 0.333 | 0.63 | 0.436 | 0.335 | 0.364 | 0.344 | 0.526 | 0.525 | 0.388 | 0.699 | 0.647 | 0.846 | 0.427
VNTTLYEKFTF [TEK_Y1108_YF] | 0.886 | 0.748 | 4.71 | 2.48 | 0.976 | 2.89 | 1.1 | 4.13 | 8.38 | 0.677 | 0.891 | 0.456 | 0.989 | 0.927 | 0.95 | 0.882
VPLATYMRIFK [RPL21_Y30_YF] | 0.733 | 0.425 | 0.35 | 0.462 | 0.477 | 0.486 | 0.406 | 0.537 | 0.406 | 0.501 | 0.614 | 0.408 | 0.881 | 0.546 | 0.602 | 0.535
VSNFNYFFHRE [KCNA1_Y413_YF] | 1.12 | 0.509 | 0.45 | 0.454 | 0.831 | 0.445 | 0.642 | 0.506 | 0.472 | 0.885 | 0.969 | 0.685 | 1.22 | 1.39 | 1.35 | 0.79
VSRGRYRPEEC [B4GALT4_Y113_Q116E] | 0.692 | 0.51 | 0.614 | 0.472 | 0.568 | 0.562 | 0.443 | 0.522 | 0.52 | 0.524 | 0.561 | 0.439 | 0.512 | 0.465 | 0.699 | 0.428
VSTAVYKRFAS [BEST1_Y148_P152A] | 0.715 | 0.647 | 0.489 | 0.449 | 0.716 | 0.555 | 0.693 | 0.511 | 0.398 | 0.48 | 0.725 | 0.507 | 0.77 | 0.681 | 0.644 | 0.49
VSVVDYVEPSP [TXNRD2_Y70_A66S] | 1.21 | 0.547 | 0.485 | 0.494 | 0.576 | 0.489 | 0.595 | 0.565 | 0.521 | 0.629 | 0.725 | 0.804 | 1.05 | 0.757 | 0.888 | 0.58
VTQEQYELFCE [CBL_Y368_YF] | 1.4 | 0.848 | 0.624 | 0.599 | 3.12 | 0.744 | 0.86 | 0.646 | 0.737 | 0.957 | 1.54 | 0.543 | 1.24 | 0.747 | 0.943 | 0.668
VTSLKYSTPPF [BRIP1_Y916_S919P_YF] | 0.607 | 0.493 | 0.457 | 0.472 | 0.595 | 0.436 | 0.342 | 0.52 | 0.38 | 0.517 | 0.599 | 0.491 | 0.841 | 0.56 | 0.929 | 0.492
VVFIKYLPEWT [PSEN1_Y240_L235V] | 1.01 | 0.532 | 0.343 | 0.335 | 0.81 | 0.414 | 0.595 | 0.44 | 0.538 | 0.773 | 1.22 | 0.424 | 1.23 | 1.64 | 1.64 | 1.04
VVQGLYKSMPK [KBTBD2_Y250] | 0.53 | 0.477 | 0.532 | 0.34 | 0.492 | 0.403 | 0.386 | 0.438 | 0.328 | 0.537 | 0.516 | 0.384 | 0.611 | 0.79 | 0.752 | 0.429
WEQELYSQLVF [WAS_Y102_YF] | 2.24 | 11.6 | 8.62 | 8.54 | 1.81 | 6.47 | 8.61 | 7.88 | 14.4 | 4.51 | 1.38 | 4.85 | 2.71 | 0.818 | 0.876 | 0.688
WFPSTYVEEDE [VAV3_Y842] | 1.43 | 0.656 | 0.454 | 0.51 | 0.875 | 0.549 | 0.789 | 0.741 | 0.638 | 0.81 | 1.42 | 0.636 | 1.5 | 0.768 | 0.743 | 0.941
WGLRSYYETSK [MAGED2_Y448] | 0.958 | 0.549 | 0.298 | 0.4 | 0.661 | 0.298 | 0.754 | 0.448 | 0.464 | 0.733 | 0.972 | 0.508 | 1.12 | 0.775 | 0.809 | 1.03

Sequence | phosphorylation enrichment (AncSZ) | phosphorylation enrichment (EPHB2) | phosphorylation enrichment (MERTK) | phosphorylation enrichment (Fyn) | phosphorylation enrichment (c-Abl (mouse)) | phosphorylation enrichment (c-Src) | phosphorylation enrichment (EPHB1) | phosphorylation enrichment (Hck) | phosphorylation enrichment (Fer (mouse)) | phosphorylation enrichment (FGFR3) | phosphorylation enrichment (Jak2) | phosphorylation enrichment (FGFR1) | phosphorylation enrichment (Fes) | SH2 binding enrichment (SHP2-C SH2) | SH2 binding enrichment (Grb2 SH2) | SH2 binding enrichment (c-Src SH2)
WIPIQYLIISE [NOG_Y222_P223L] | 1.2 | 0.723 | 0.436 | 0.474 | 0.858 | 0.457 | 0.624 | 0.573 | 0.666 | 0.838 | 1.2 | 0.58 | 1.43 | 1.12 | 1.21 | 0.923
WKEIEYEVVPD [CPS1_Y634_R638P] | 1.43 | 0.961 | 0.494 | 0.483 | 0.639 | 0.479 | 0.636 | 0.559 | 0.554 | 0.774 | 1.18 | 0.7 | 1.18 | 0.861 | 0.837 | 0.48
WPQKLYNNFVN [MYO5C_Y526_L522P] | 0.795 | 0.546 | 0.505 | 0.439 | 0.687 | 0.626 | 0.407 | 0.528 | 0.377 | 0.518 | 0.725 | 0.445 | 0.884 | 0.668 | 1.11 | 0.59
WSFNLYDINKD [KCNIP3_Y174_A170S] | 1.36 | 0.875 | 0.796 | 1.07 | 0.68 | 0.88 | 0.894 | 1.29 | 1.01 | 0.819 | 1.12 | 0.566 | 1.45 | 0.676 | 0.676 | 0.469
WVYNHYRCIIW [BRCA2_Y2624_W2626C] | 1.28 | 0.645 | 0.659 | 0.515 | 1.18 | 0.481 | 0.806 | 0.538 | 0.569 | 0.891 | 1.4 | 0.562 | 1.63 | 1 | 0.94 | 0.58
YAFQLYDLDPD [CHP2_Y123_R127P] | 1.66 | 0.998 | 2.01 | 4.7 | 0.78 | 5 | 1.52 | 2.56 | 0.916 | 1.37 | 1.32 | 1.65 | 1.37 | 1.71 | 0.986 | 1.28
YDEYRYRSFIK [CFTR_Y517_V520F] | 1.06 | 0.596 | 0.518 | 2.33 | 0.957 | 1.62 | 0.54 | 1.51 | 0.64 | 0.679 | 1.14 | 0.495 | 0.946 | 0.849 | 0.901 | 1.21
YEREQYADRAR [RBM4_Y355] | 0.701 | 0.432 | 0.29 | 0.37 | 0.531 | 0.338 | 0.383 | 0.439 | 0.441 | 0.534 | 0.575 | 0.495 | 0.707 | 0.727 | 0.881 | 0.591
YETDYYQKGGK [INSR_Y1190_R1191Q] | 1.34 | 0.615 | 0.664 | 0.519 | 0.526 | 0.459 | 0.63 | 0.639 | 0.573 | 0.907 | 0.716 | 0.983 | 0.919 | 1.16 | 0.863 | 1.1
YETSHYPASPD [CTNND2_Y1217] | 0.858 | 0.512 | 0.42 | 0.434 | 0.528 | 0.489 | 0.382 | 0.421 | 0.484 | 0.626 | 0.7 | 0.454 | 0.771 | 0.723 | 0.739 | 0.76
YGAHNHHPLPV [OAT_Y55_Y55H] | 0.538 | 0.38 | 0.516 | 0.415 | 0.671 | 0.506 | 0.413 | 0.458 | 0.693 | 0.473 | 0.62 | 0.408 | 0.696 | 1.05 | 0.963 | 0.919
YKTPIYPYLLP [PLD2_Y578_T577I] | 1.14 | 0.744 | 2.08 | 0.787 | 0.899 | 0.707 | 0.816 | 0.628 | 0.695 | 1.53 | 1.51 | 2.43 | 0.857 | 1.04 | 0.953 | 2.4
YSMGCYEIYLG [HMGCL_Y198_S201Y] | 4.43 | 8.68 | 4.69 | 6.34 | 1.37 | 5.79 | 4.78 | 4.95 | 5.57 | 2.19 | 1.41 | 2.06 | 2.02 | 0.641 | 0.713 | 0.627
YSTDCYRVGGH [NTRK2_Y707_Y706C] | 0.733 | 0.555 | 3.67 | 0.438 | 0.79 | 0.415 | 0.554 | 0.45 | 0.414 | 0.683 | 0.639 | 0.594 | 0.827 | 0.735 | 0.891 | 0.896
YVGGFYGGCNE [CTSC_Y352] | 1.17 | 0.553 | 0.682 | 0.864 | 0.869 | 0.786 | 0.54 | 0.984 | 0.786 | 0.962 | 1.06 | 0.639 | 1.14 | 0.651 | 0.77 | 1.23
YYHCTYKQRMI [CLEC12A_Y242_K244Q] | 1.64 | 0.527 | 3.68 | 0.693 | 1.4 | 0.773 | 0.63 | 1.1 | 0.452 | 7.01 | 1.73 | 9.07 | 1.01 | 0.953 | 1.41 | 1.41
